Reference: patent US20240301049A1 (Ablynx, published 2024)

Legend:
human IL-6 [1] = biological target: T1, human IL-6 (human, UniProt P05231 30-212); test: SPR
T1 construct: also called hIL-6

cyno TNF-α [2] = biological target: T2, cyno TNF-α (cynomolgus monkey, UniProt P79337 77-233); test: cell-based or functional assay
cyno IL-6 [3] = biological target: T3, cyno IL-6 (cynomolgus monkey, UniProt P79341 28-212, limits assumed); test: cell-based or functional assay
T3 sequence (looked up): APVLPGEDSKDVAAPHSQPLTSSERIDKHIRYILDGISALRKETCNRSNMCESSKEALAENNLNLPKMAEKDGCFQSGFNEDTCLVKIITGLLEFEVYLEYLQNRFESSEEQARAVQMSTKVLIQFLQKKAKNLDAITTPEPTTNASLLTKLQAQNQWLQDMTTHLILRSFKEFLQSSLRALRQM

human IL-6 [4] = biological target: T1, human IL-6; test: cell-based or functional assay
human TNF-α [5] = biological target: T4, human TNF-α (human, UniProt P01375 77-233); test: cell-based or functional assay
cyno TNF-α [6] = biological target: T2, cyno TNF-α; test: cell-based or functional assay; remark: listed apart in the source
cyno IL-6 [7] = biological target: T3, cyno IL-6; test: cell-based or functional assay; remark: listed apart in the source
human IL-6 [8] = biological target: T1, human IL-6; test: cell-based or functional assay; remark: listed apart in the source
human TNF-α [9] = biological target: T4, human TNF-α; test: cell-based or functional assay; remark: listed apart in the source

T2 sequence (P79337 77-233 limits assumed): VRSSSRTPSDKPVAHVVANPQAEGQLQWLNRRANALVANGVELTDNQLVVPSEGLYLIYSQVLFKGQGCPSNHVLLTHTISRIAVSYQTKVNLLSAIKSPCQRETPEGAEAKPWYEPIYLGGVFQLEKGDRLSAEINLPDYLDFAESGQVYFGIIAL
T4 sequence (P01375 77-233 limits assumed): as the sequence (P79337 77-233 limits assumed) above, with V37L, T44R, N72T, L138R counted along it

Row | Binder | koff (human IL-6 [1]) | cyno TNF-α NFkb assay (IC50, pM) (cyno TNF-α [2]) | cyno IL-6 TF1 proliferation assay (IC50, pM) (cyno IL-6 [3]) | Ratio IC50 reference anti-IL-6 mAb1/Nb (human IL-6 [4]) | hIL-6 TF1 proliferation assay (IC50, pM) (human IL-6 [4]) | Ratio IC50 reference anti-TNF-α mAb/Nb (human TNF-α [5]) | hTNF-α Nfkb assay (IC50, pM) (human TNF-α [5]) | Ratio IC50 cyno TNFα/hTNFα (cyno TNF-α [6]) | Ratio IC50 cyno IL-6/hIL-6 (cyno IL-6 [7]) | IC50 hIL-6 TF1 proliferation assay (human IL-6 [8]) | IC50 hTNF-α Nfkb assay (human TNF-α [9])
1 | F027201040 (VHH, also called IL6006B12 (L11V, S52aG, S60A, K83R, V89L)) VHH: EVQLVESGGGVVQPGGSLRLSCAASGFTLAYYAIGWFRQAPGKEREGVSCISGSVGTTYYADSVKGRFTISRDNAKNTVYLQMNSLRPEDTALYYCVRSSWFDCGVQGRDLGNEYDYRGQGTLVTVSS | 5.9e-05 s⁻¹ |  |  |  |  |  |  |  |  |  | 
2 | F027200927 (bispecific antibody) DVQLVESGGGVVQPGGSLRLSCTASGFTFSTADMGWFRQAPGKGREFVARISGIDGTTYYDEPVKGRFTISRDNSKNTVYLQMNSLRPEDTALYYCRSPRYADQWSAYDYWGQGTLVTVSSGGGGSGGGSEVQLVESGGGVVQPGGSLRLSCAASGRTFSSYVMGWFRQAPGKEREFVSTINWAGSRGYYADSVKGRFTISRDNAKNTVYLQMNSLRPEDTALYYCAASAGGFLVPRVGQGYDYWGQGTLVTVSSGGGGSGGGSEVQLVESGGGVVQPGGSLRLSCAASGFTFRSFGMSWVRQAPGKGPEWVSSISGSGSDTLYADSVKGRFTISRDNSKNTLYLQMNSLRPEDTALYYCTIGGSLSRSSQGTLVTVSSGGGGSGGGSEVQLVESGGGVVQPGGSLRLSCAASGFSLDYYGVGWFRQAPGKEREGVSCISSSEGDTYYADSVKGRFTISRDNAKNTVYLQMNSLRPEDTALYYCATDLSDYGVCSRWPSPYDYWGQGTLVKVSSA |  | 254 pM | 72 pM | 1.8 ratio | 71 pM | 4.2 ratio | 59 pM | 4.3 ratio | 1 ratio | 71.2 pM | 59.3 pM
3 | F027201061 (bispecific antibody) EVQLVESGGGVVQPGGSLRLSCTASGFTFSTADMGWFRQAPGKGREFVARISGIDGTTYYDEPVKGRFTISRDNSKNTVYLQMNSLRPEDTALYYCRSPRYADQWSAYDYWGQGTLVKVSSGGGGSGGGSEVQLVESGGGVVQPGGSLRLSCAASGFTLAYYAIGWFRQAPGKEREGVSCISGSVGTTYYADSVKGRFTISRDNAKNTVYLQMNSLRPEDTALYYCVRSSWFDCGVQGRDLGNEYDYRGQGTLVTVSSGGGGSGGGSEVQLVESGGGVVQPGGSLRLSCAASGFTFRSFGMSWVRQAPGKGPEWVSSISGSGSDTLYADSVKGRFTISRDNSKNTLYLQMNSLRPEDTALYYCTIGGSLSRSSQGTLVTVSSGGGGSGGGSEVQLVESGGGVVQPGGSLRLSCAASGFSLDYYGVGWFRQAPGKEREGVSCISSSEGDTYYADSVKGRFTISRDNAKNTVYLQMNSLRPEDTALYYCATDLSDYGVCSRWPSPYDYWGQGTLVKVSS |  | 176 pM | 101 pM | 2.7 ratio | 147 pM | 0.91 ratio | 71 pM | 2.5 ratio | 0.7 ratio | 147 pM | 71.2 pM
4 | F027201060 (bispecific antibody) EVQLVESGGGVVQPGGSLRLSCAASGFTLAYYAIGWFRQAPGKEREGVSCISGSVGTTYYADSVKGRFTISRDNAKNTVYLQMNSLRPEDTALYYCVRSSWFDCGVQGRDLGNEYDYRGQGTLVTVSSGGGGSGGGSEVQLVESGGGVVQPGGSLRLSCAASGFTFRSFGMSWVRQAPGKGPEWVSSISGSGSDTLYADSVKGRFTISRDNSKNTLYLQMNSLRPEDTALYYCTIGGSLSRSSQGTLVTVSSGGGGSGGGSEVQLVESGGGVVQPGGSLRLSCAASGFSLDYYGVGWFRQAPGKEREGVSCISSSEGDTYYADSVKGRFTISRDNAKNTVYLQMNSLRPEDTALYYCATDLSDYGVCSRWPSPYDYWGQGTLVKVSSGGGGSGGGSEVQLVESGGGVVQPGGSLRLSCTASGFTFSTADMGWFRQAPGKGREFVARISGIDGTTYYDEPVKGRFTISRDNSKNTVYLQMNSLRPEDTALYYCRSPRYADQWSAYDYWGQGTLVKVSS |  | 176 pM | 49 pM | 2.3 ratio | 127 pM | 0.67 ratio | 100 pM | 1.8 ratio | 0.4 ratio | 127 pM | 100 pM
